Measurements as given in paper PMC9800579, “Interplay of membrane crosslinking and curvature induction by annexins” (Scientific Reports, 2022).

Target: the molecule itself
Test: atomic force microscopy; alternating contact mode on DOPC/DOPS (1:1) supported lipid bilayers on mica, 10 mM TRIS pH 7.4, 140 mM NaCl, 2 mM Ca2+; 40 nM ANXA4 added with 40 nM ANXA1-GFP or ANXA2-GFP; 250 nm x 250 nm scans of the lower (ANXA4) domains, Fourier transform

B1: annexin A4 (natural protein, UniProt P09525 1-319, looked up)
chain: MATKGGTVKAASGFNAMEDAQTLRKAMKGLGTDEDAIISVLAYRNTAQRQEIRTAYKSTIGRDLIDDLKSELSGNFEQVIVGMMTPTVLYDVQELRRAMKGAGTDEGCLIEILASRTPEEIRRISQTYQQQYGRSLEDDIRSDTSFMFQRVLVSLSAGGRDEGNYLDDALVRQDAQDLYEAGEKKWGTDEVKFLTVLCSRNRNHLLHVFDEYKRISQKDIEQSIKSETSGSFEDALLAIVKCMRNKSAYFAEKLYKSMKGLGTDDNTLIRVMVSRAEIDMLDIRAHFKRLYGKSLYSFIKGDTSGDYRKVLLVLCGGDD
notes: annexin A4 (ANXA4), unlabelled recombinant protein from a PCR-amplified cDNA in pETM11-SUMO3; the introduction gives 320 amino acids for ANXA4 (cited); also called ANXA4; recombinant ANXA4; source: E. coli BL21 (DE3), purified (Ni-NTA IMAC, Superdex 200 SEC); not shown: 6xHis, N-terminal, cleaved; SUMO3 domain, N-terminal, cleaved
With B1 the “stoichiometry N” value was 3.
